Laboratory results from the domain aggregation screens of Martell et al. (2025).

Test: soluble fraction after stress (log2 fold change); higher = more stays soluble; pooled small domains, quantitative proteomics
Details: stress: 75 degC
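Also: 20 min heating vs room temperature control held 20 min.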

Sequence | soluble fraction (log2)
HMETVVTEVKTTDVVNIRTSDSETADKLSKAAIGDTFPLLEERGNGWSKVAYNGEEAFIKSDYLEPSKTE | 0.0124
HMETYEFNITDKEQTGMRVDKLLPELNSDWSRNQIQDWIKAGLVVANDKVVKSNYKVKLNDHIVVTEKEV | 0.0567
HMETYPINVETTGTNVLLRTGPSTSSNIIKTITDKGTVFLSIERGINSDWQKVVTPDGTIGYMSGKY | 0.00405
HMEVAVQFIEFKIPENHAWIGKEIREITFPPESILVLIIRDGKKLVPNGKTVLKEGDSLILSGKASD | -1.43
HMEVDDEAIYQGHEPSIRLHRLLKDVGYNSALLPSVVTQIFKDFPGIELAKALPIAMQLLNED | -0.617
HMEVFGDTKEEQMIIDILKLGITDLEHLQAKSMLEPAIFSQTLTMLEISGKIRPLGAGHWTL | -2.87
HMEVFTPSEANVAEAREILAAMATAKANGEGATVYKGRLVDIASIKQAEVIVRQSEMIQSAH | 0.696
HMEVIDQLFKIALTLFDIDKGENNSISQDLVDKVIEQMKTTAPTFIKRELSEDEVKKLRFEIQNHFNV | -0.482
HMEVKSGFVHLTGAVKSPGVYPISIGMRLFEVIALAGGFTAKADRESVNLARTVTDGEQIIVSGSG | -3.72
HMEVLEGFIEDIKFKSEESGYTVAKLNNRNKSIVIVGTMPFISEGQHVKLTGEWKIHQKFGAQFNVKELEE | -0.923
HMEVMYFIYQQEEPMRIDKFLVNEMEDFSRNSIQIYIKDNHVLVNDKVVKANYILKKGDAISITIPDPI | -1.14
HMEVNMEEKMEFVHSYIKTHKTFLFRQLLSESKSRTQVIVTFLVILELIKGGKISVTQENRTDDILINSL | 0.0528
HMEVPDTIIRLRELVAAMPEQWQKVYRLVFMEGLSKAKAGKKIGISDVRVGQLVKKINAAIAGDETLK | -1.01
HMEVPMELPRQLRANRERLGLSQEDVAHAIYVSRQTMSSWERGKTYPDVQSLMLLSHLFGISIDELVKGDV | -1.57
HMEVPVQYIKFKIPENHFWAKKKVADIILPPETLLVLLQRGSDKMIPDGETVLLPEDTLVLIAKAPG | -0.479
HMEVSVPDFTGMSKSDAQNAAKEAGLTVNFEEDYDNQVPAGQVIRSNPSAGEKVKKNSSVTVTLSKGSN | 0.128
HMEVSYSLPRFHKGKNPYVDFYQVDPRTLRMRRKKFLLRGVRDAVLLEQRAADLVALLTERLHSGWNAWDD | -2.1
HMEVTENQEKHAYQEAMDQALRFLAPRFLSRAELTRKLLQKEHDRDVIDAVIDRLEELDYVDDAR | -0.013
HMEVTLGLGSMVRLLGEPYLGSTGRVVELPDQAERFASGLTAKVAVVERHDGELIRVPVTNLLLME | -1.25
HMEVTLTLKSFGTAKVAVIKAIQSITGLGLMDAKKLVDAAPSVIKEKISPSEAEQYKKTLVDAGAEVEI | -2.31
HMEVVVPDFEKIYIRDLDKFVEGHNVRYEIVDSIYNLEKDKGTVVDQDPEPGSKVKHGRVIYLTVNAML | -0.231
HMEVVVPEDLDAALQQASRAQSFFSSLSYTHKKEYVAWINEAKRAETRAMRIQKTITMLESGQRGH | -2.35
HMEWEVHSVTVTPELSGERLDVAATALLSQFSRALVQRWIDANELTLNERPVKAKSKVRVGDLIAVKAK | -1.06
HMEWLENIKKLKKEKGLTNESLSEKSGISVGTLNKLLSGATTDPKLSTLRPLADALEVSLDELLAI | -0.0723
HMEWTDIPTHKVPNVVGKSVEEAKKKLSKFTIEYSGTGEKVVAQSPDAGEKLEEGGTVRLLL | -0.136
HMEYEETMSQIKHNLNLLPRQQRVIIEMAKFDELTPAEIAKQLGISVQTVRNQLSTGLKKLRQLL | 0.0391
HMEYKKKIGELLIDGNKKLKAANIDTYILDTQLLLGKVLGKDKLYLITNKDEEVSNFKEREFYSLIEKRI | 0.0872
HMEYMKQRLYDIIELFKRSFSPSFSEEEKKKLENVLQDDFLRKAYEQLSDEVFIEEKFREFDGY | -2.88

Sequence | soluble fraction (log2)
HMEYPNEIARIFNQIPELNVSAVARTLGINKSLLSSYIYGMKKPSPERTEEIKSAIRKIGQNMLAV | -0.927
HMEYQSLVLDFLEQGDFNAEKLKDYQRAFAKQNGMQTLPSKSQILQAYFQLVEEKKINKNSDFELLLRKR | -0.32
HMEYSNLGEALRRLSEIDLQIILLKYSHGFSIKEISKILDIKEVNLYKRNKRALNKLKKILAEMEVLSN | -0.34
HMEYYDDEELDRFRGVEADAYDEDAVNEFRDVLYTLQEIEVAGWLRSLQLRAINLPDELKDEAFLI | -1.48
HMEYYEDEELDRFRGRNSDQYSDAEIEEFNEILTTLRSEEVAGWIRSLQLREIALPDELKDDVILLVG | -0.903
HMEYYIMPVANLHKVVVDGKDMSNLISNNAIAVKANVIDEGQIQIKPGEIIITTPAGVSPEEAVRSP | ≥ 1.04
HMFANQLLLTRFDLNYIKSDVLSRQIDVLGIPIKKLTIEANNKSIWLQGTSQSLSKVRELIGIIDIRENA | -3.38
HMFAQDKKFITYKVKEGETVQSISKALSITPYDLLKLNPDIKDNVSQDDLLIIPNKQYDPLGDI | 0.378
HMFDENVKLIENEYDVSIISRGSELKVMGDVENVDKAARALRSMLAMINKGESLTEQNVRYVLTLVNEGNE | -0.735
HMFDFLELGQAIQDAREKQRITREELAEELGISARHLQSVEKEGQYPSFRLFIQLVTMFHISVDQYI | -0.0535
HMFDLATVKRVAEEAGMKFTIHPVELRAAHPNTAVLTLKSKAGRILVLKAASVGGGRIRVTEIDGVPAD | -0.335
HMFDLDIEQIANDLKHGVMPNLYGLSLQDALYLLEAKGIRVKVAGSGSVVNQSIKTGAYVGSGSVLKLEL | -1.78
HMFDLSQRQEQIIEIVRKHGPITGEKIADLLYVTRAALRPDLAILTMSGYLEAKPRVGYTYK | -1.64
HMFDMLGDQIKKYRKEKKMSQEELAIPLNVVRQTVSKWENNLSVPDAELLIRLAEVLEISVAELLGT | -0.378
HMFDTVFIVRKTSDKPLDGLRTYLNSIGDSLVIGEDDEAFKVHVHTNHPGKVLEEAITYGALQTVKIENMR | -1.07
HMFDTVTIGRKIAELRKAHNMTQFELADALGISFQAVSNWERGASMPDISKLPELAEIFGVTIDEVLGK | -1.5
HMFEATGKITGTEVSFRRKPTTDSERILFFDINTEFRVIGINNGWYKGVYQGKTGYVRSDFVEIVGG | -2.05
HMFEEPYLATYPVLIDPKLAFNVLDTMLEGLEVKMDQDEETGAISVLAPASIHTKITEYLDALSKQ | -0.0924
HMFEERKKDWNLTGLLDDVIRRYIHQLTNDELNEINLEKSSGMPDEEIKNGIKLPLAVMQQRRETWGS | -0.252
HMFEQRLRQAMKELRLKQVQVAGLTGKSRGAISQYLSGDRVPPDGVQREMAIALGLEADYFSR | -0.85
HMFERFIFTDEVYIRLKKSGLPQTTLRPLLEIHGKSFDHNEINIILSGLIPNQDFERYAQIIKSHSRF | -4.24
HMFEYDEIMEQSVPKIAWGSLLTIMKKASSHKEMLWYINETYKNGWSRSMVLNQIAMASYERSLIE | -0.732
HMFFDKIIVDFLADGSRIDKYISTLYPDISRTHIQRLIAEQFILVNDSVVKSNYKLSTNDVVLIHIPEA | -3.01
HMFFMTMGEKIQLLRKKQNWSQETLAEKLSVSRQAVSLWERDESQPELDKLLKLAKIFSVTTDYLIDDSVT | -3.19
HMFGGIEFGWSQLPDGRVEYIIQLDDQAIAALKNGRSLTSSLPPEVQNADRIRIQYGAGPVEKGLLLQ | -0.206
HMFIEMDEPEKILHRILNEANGKLELDKIGYRAEWPIGKVLTVLMSLELKGVVQSHPGKVYSL | -0.371
HMFIGFLHQLKEAGVPVSIREYLDFLSGLDKGITNLNTNSFYHFARASLVKDERHYDRFDRTFSEFFEGAL | -3
